Numbering of substitutions follows the chain as printed. Names may count otherwise. Ends that are not written are not given here.

The target of data set [1] is wild-type TAP (human TAP1/TAP2 complex) (human) (UniProt Q03518).
In data set [2] the target is D674A/wt TAP complex (human TAP1 D674A with wt TAP2) (human) (UniProt Q03519).
Data set [3] deals with P36370. The data set can be described thus: AUC; sedimentation velocity, with ADP; 33 μM protein, 40,000 r.p.m., 10 °C, 14 h; 20 mM Tris pH 8.0, 50 mM NaCl, 5 mM MgCl2; c(S) model (Sedfit).
Data set [4] deals with the molecule itself. The data set can be described thus: AUC; sedimentation equilibrium, with ADP; 12,000, 15,000 and 22,000 r.p.m., 10 °C; 3, 11 and 33 μM protein; 20 mM Tris pH 8.0, 50 mM NaCl, 5 mM MgCl2; monomer-dimer self-association model (SedPhat); dimer to monomers.
Data set [5] deals with the molecule itself. The data set can be described thus: AUC; sedimentation velocity, with ATP; 33 μM protein, 40,000 r.p.m., 10 °C, 14 h; 20 mM Tris pH 8.0, 50 mM NaCl, 5 mM MgCl2; c(S) model (Sedfit).
Data set [6] deals with the molecule itself. Put plainly: AUC; sedimentation equilibrium, with ATP; 12,000, 15,000 and 22,000 r.p.m., 10 °C; 3, 11 and 33 μM protein; 20 mM Tris pH 8.0, 50 mM NaCl, 5 mM MgCl2; monomer-dimer self-association model (SedPhat); dimer to monomers.
For data set [7], the target named is P36370. Put plainly: AUC; sedimentation velocity, with ATP; 33 μM protein, 40,000 r.p.m., 10 °C, 14 h; 20 mM Tris pH 8.0, 50 mM NaCl, 5 mM MgCl2; c(S) model (Sedfit).
Substrate in data set [8]: Nc1ncnc2c1ncn2[C@@H]1O[C@H](COP(=O)(O)OP(=O)(O)OP(=O)(O)O)[C@@H](O)[C@H]1O
The data set can be described thus: ATP-dependent transport of RRYC(FL488)KSTEL in proteoliposomes. It counts as biochemical, Homo sapiens. The conditions noted are these: peptide 1 μM, Mg2+, pH 7.4, 37 °C. From the text:
ATP-dependent transport of RRYC(FL488)KSTEL in proteoliposomes on TAP (TAP1/TAP2 complex; wt TAP) | the Michaelis–Menten kinetics for peptide transport by wt TAP and D674A/wt are equal

RRYC(Atto633)KSTEL [Atto633-labelled peptide RRYC(AT633)KSTEL] had a lumenal peptide concentration reached in proteoliposomes at high external peptide (for example 100 μM): trans-inhibition in data set [1] of less than 16 µM. In data set [2], the EC50 of lumenal peptide accumulation in proteoliposomes after 1 h at different external peptide concentrations, given as Kd of a low-affinity lumenal peptide-binding site stood at 10.7 µM and the lumenal peptide concentration reached in proteoliposomes at high external peptide (for example 100 μM): trans-inhibition is less than 16 µM.

B1: rat TAP1-NBD Walker B mutant (D645N) (domain or fragment)
chain: SPLSGSLAPLNMKGLVKFQDVSFAYPNHPNVQVLQGLTFTLYPGKVTALVGPNGSGKSTVAALLQNLYQPTGGKVLLDGEPLVQYDHHYLHTQVAAVGQEPLLFGRSFRENIAYGLTRTPTMEEITAVAMESGAHDFISGFPQGYDTEVGETGNQLSGGQRQAVALARALIRKPRLLILDNATSALDAGNQLRVQRLLYESPEWASRTVLLITQQLSLAERAHHILFLKEGSVCEQGTHLQLMERGGCYRSMVEALAAPSD
notes: Model system for NBD homodimerisation; also called Walker B D645N; hydrolysis-deficient Walker B mutant; source: E. coli BL21(DE3), purified (Ni-NTA, Superdex200)
On to B1, for which the 2nd/1st ratio (dimer to monomer peaks) in the data set with P36370 [3] stood at 0.68; in the data set with P36370 [7], 2.61. In addition, the Kd in data set [4] amounted to 111 µM; in data set [6], 22.4 µM. Moreover, the “stoichiometry N” value in data set [5] turned out to be 2.

B2: rat TAP1-NBD Walker B/D-loop double mutant (D645N/D651A) (domain or fragment)
chain: B1 chain with D187A
notes: D651A of rat TAP1 is equivalent to D674A of human TAP1; also called Walker B D645N/D-loop D651A; rat TAP1 NBD D645N/D651A; source: E. coli BL21(DE3), purified (Ni-NTA, Superdex200)
For the molecule B2, the 2nd/1st ratio (dimer to monomer peaks) came to 0.26 with P36370 [3] and 0.11 in the data set with P36370 [7]. The Kd in data set [4] was 164 µM; in data set [6], 170 µM.

B3: TAP (TAP1/TAP2 complex; wt TAP) (Homo sapiens) (protein)
chain 1: MASSRCPAPRGCRCLPGASLAWLGTVLLLLADWVLLRTALPRIFSLLVPTALPLLRVWAVGLSRWAVLWLGACGVLRATVGSKSENAGAQGWLAALKPLAAALGLALPGLALFRELISWGAPGSADSTRLLHWGSHPTAFVVSYAAALPAAALWHKLGSLWVPGGQGGSGNPVRRLLGCLGSETRRLSLFLVLVVLSSLGEMAIPFFTGRLTDWILQDGSADTFTRNLTLMSILTIASAVLEFVGDGIYNNTMGHVHSHLQGEVFGAVLRQETEFFQQNQTGNIMSRVTEDTSTLSDSLSENLSLFLWYLVRGLCLLGIMLWGSVSLTMVTLITLPLLFLLPKKVGKWYQLLEVQVRESLAKSSQVAIEALSAMPTVRSFANEEGEAQKFREKLQEIKTLNQKEAVAYAVNSWTTSISGMLLKVGILYIGGQLVTSGAVSSGNLVTFVLYQMQFTQAVEVLLSIYPRVQKAVGSSEKIFEYLDRTPRCPPSGLLTPLHLEGLVQFQDVSFAYPNRPDVLVLQGLTFTLRPGEVTALVGPNGSGKSTVAALLQNLYQPTGGQLLLDGKPLPQYEHRYLHRQVAAVGQEPQVFGRSLQENIAYGLTQKPTMEEITAAAVKSGAHSFISGLPQGYDTEVDEAGSQLSGGQRQAVALARALIRKPCVLILDDATSALDANSQLQVEQLLYESPERYSRSVLLITQHLSLVEQADHILFLEGGAIREGGTHQQLMEKKGCYWAMVQAPADAPE
chain 2: MRLPDLRPWTSLLLVDAALLWLLQGPLGTLLPQGLPGLWLEGTLRLGGLWGLLKLRGLLGFVGTLLLPLCLATPLTVSLRALVAGASRAPPARVASAPWSWLLVGYGAAGLSWSLWAVLSPPGAQEKEQDQVNNKVLMWRLLKLSRPDLPLLVAAFFFLVLAVLGETLIPHYSGRVIDILGGDFDPHAFASAIFFMCLFSFGSSLSAGCRGGCFTYTMSRINLRIREQLFSSLLRQDLGFFQETKTGELNSRLSSDTTLMSNWLPLNANVLLRSLVKVVGLYGFMLSISPRLTLLSLLHMPFTIAAEKVYNTRHQEVLREIQDAVARAGQVVREAVGGLQTVRSFGAEEHEVCRYKEALEQCRQLYWRRDLERALYLLVRRVLHLGVQMLMLSCGLQQMQDGELTQGSLLSFMIYQESVGSYVQTLVYIYGDMLSNVGAAEKVFSYMDRQPNLPSPGTLAPTTLQGVVKFQDVSFAYPNRPDRPVLKGLTFTLRPGEVTALVGPNGSGKSTVAALLQNLYQPTGGQVLLDEKPISQYEHCYLHSQVVSVGQEPVLFSGSVRNNIAYGLQSCEDDKVMAAAQAAHADDFIQEMEHGIYTDVGEKGSQLAAGQKQRLAIARALVRDPRVLILDEATSALDVQCEQALQDWNSRGDRTVLVIAHRLQTVQRAHQILVLQEGKLQKLAQL
notes: full-length heterodimer from Sf9 insect cells (baculovirus), purified and reconstituted in proteoliposomes, or in membranes
On to B3, for which the Km in data set [8] is recorded as 99 ± 24 µM.

Usually Kd stands for the free concentration of one partner at which half of the binding sites on the other are occupied at equilibrium, for simple one-to-one binding. The low end stands for a tighter complex, the high end for a looser complex. In general, stoichiometry N refers to the number of molecules, sites or subunits per partner or assembly. The Km is the substrate concentration at which the rate is half of its maximum.

For the origin of these results see article PMC4242082, “Mechanistic determinants of the directionality and energetics of active export by a heterodimeric ABC transporter” (Nature Communications, 2014).
